Measurements published in article PMC10699557 (2023).
Numbered stars: 1 amine (or outer) side, 2 acyl side, 3 side chain; on linkers, the order of the positions; unused ones are H or OH. Bridge positions count the residues as written; N and C are the ends. Primed or numbered codes have the meaning given here. Ends that are not written are not given here. DVP = divinylpyrimidine, c1nc(CC[*:1])cc(CC[*:2])n1; DVT″ = divinyltriazine

B1: SP24, tag-free, stapled with DVP (peptide)
chain: GFSGFSTASGKKLNVSCQALQKACKLFSG
modifications: linker 17-24 via DVP
B2: BRC8-2 template (peptide)
chain: VNSSAFSGFSTASGKKLNVSTEALQKAVKLFSDIENIS
B3: SP30, tag-free, stapled with DVP (peptide)
chain: GCSGFSTASGKKLNVSTQACQKAVKLFSG
modifications: linker 2-20 via DVP (inferred)
B4: SP2, tag-free, stapled with DVT (peptide)
chain: GSVNSSAFSGFSTASGKKLNVSCEALQKACKLFSDI
modifications: linker 23-30 via DVT″
B5: SP31 (peptide)
chain: RRRRRRRRRGCSGFSTASGKKLNVSTQACQKAVKLFSG
modifications: stapled (linker not stated for SP31)

Columns and labels:
HumRadA22 [1] = assay: FP
HumRadA22 [2] = assay: ITC
HumRadA22 [3] = assay: ITC; remark: listed apart in the source

Binder | Kd (HumRadA22 [1]) | Kd (HumRadA22 [2]) | Kd (HumRadA22 [3])
B1 | 13 nM | 21 nM | 
B2 |  | 4 nM | 
B3 | 13 nM | 26 nM | 
B4 |  | 17 nM | 
B5 |  |  | 44 nM
